Legend:
[1] = substrate: CC(C)=CCOP(=O)(O)OP(=O)(O)O; assay: LC/MS quantification of FPP formed; format: biochemical, Sundstroemia setigera; conditions: IPP 50 μM constant, 35 mM Tris-HCl pH 7.5, 10 mM MgCl2, 4 mM DTT, 30 °C
[2] = substrate: CC(C)=CCC/C(C)=C/COP(=O)(O)OP(=O)(O)O; assay: LC/MS quantification of FPP formed; format: biochemical, Sundstroemia setigera; conditions: IPP 50 μM constant, 35 mM Tris-HCl pH 7.5, 10 mM MgCl2, 4 mM DTT, 30 °C
[3] = substrate: C=C(C)CCO[P@@](=O)(O)OP(=O)(O)O; assay: purified protein; conditions: DMAPP 50 μM constant, 35 mM Tris-HCl pH 7.5, 10 mM MgCl2, 4 mM DTT, 30 °C

B1: RsFPPS (Sundstroemia setigera) (protein)
chain: VSSLPPIIAGAAIYRLVSSKTLPDLTSAFFELEIPDQISLLSLLFASVFSAVSISGFIAPPGHNDDDDEDEHKPPFQYPLKEIASKTTDKEKFLSVYPCLRDSIAEYFATKHEMVPEGVNWITEMIDYSCVGGKMNRGITVLTVARTLSGSSGLTPREEARASVVGWGIEFLQAFFLVADDLMDDSKTRRGQPCWYLLPKVGTIAVNDSFLLESFVFTFLKEHFGKEPYYIKLVELFLETIQQTECGQLLDLTSQPKDAKTADLSRFTIERYRKIVKYKTAFYSFYLPVASAMLMSGVTNSKSFKTARNICCIMGEYFQIQDDVLDCYGTPEVIGKVGTDIQDNKCSWLIVQALDRATPEQRKVIEENYGKWDDAKVAKIKAIYNEMGLKSVFEKYEEDSYAEIQEELKKINDIPQEVFTLFLDKIYKRSK
notes: kcat calculated for dimer
Km [1]: 10.6 ± 2.3 µM
kcat [1]: 343.8 ± 18.23 min⁻¹
Km [2]: 63.0 ± 7.5 µM
kcat [2]: 2610.0 ± 133.7 min⁻¹
Km [3]: 21.5 ± 6.7 µM
kcat [3]: 371.5 ± 34.43 min⁻¹

Reference: PMC4440519, “Cloning and characterization of farnesyl pyrophosphate synthase from the highly branched isoprenoid producing diatom Rhizosolenia setigera” (Scientific Reports, 2015)
